Measured values reported in publication PMC9907115.
Values belong to the substance of their own block, whether it stands above or below them.

Tests used:
Test in all cases: cross-linking
[1] = biological target: ^3FLAGPrgH (S. Typhimurium) (UniProt P41783)
[2] = biological target: ^3FLAGSpaO (S. Typhimurium) (UniProt P40699)
[3] = biological target: OrgB^R21^p^Bpa (OrgB^M45 variant) (S. Typhimurium)

Sequence of UniProt P40699 (P40699 whole entry): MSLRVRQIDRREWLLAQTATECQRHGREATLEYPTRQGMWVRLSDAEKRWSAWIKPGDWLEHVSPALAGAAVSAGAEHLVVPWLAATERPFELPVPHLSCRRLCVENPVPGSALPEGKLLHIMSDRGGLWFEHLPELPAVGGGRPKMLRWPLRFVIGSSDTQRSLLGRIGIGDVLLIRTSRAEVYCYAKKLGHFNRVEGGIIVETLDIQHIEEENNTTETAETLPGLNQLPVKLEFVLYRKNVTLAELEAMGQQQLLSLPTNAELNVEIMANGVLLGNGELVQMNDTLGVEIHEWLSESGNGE
Sequence of UniProt P41783 (P41783 whole entry): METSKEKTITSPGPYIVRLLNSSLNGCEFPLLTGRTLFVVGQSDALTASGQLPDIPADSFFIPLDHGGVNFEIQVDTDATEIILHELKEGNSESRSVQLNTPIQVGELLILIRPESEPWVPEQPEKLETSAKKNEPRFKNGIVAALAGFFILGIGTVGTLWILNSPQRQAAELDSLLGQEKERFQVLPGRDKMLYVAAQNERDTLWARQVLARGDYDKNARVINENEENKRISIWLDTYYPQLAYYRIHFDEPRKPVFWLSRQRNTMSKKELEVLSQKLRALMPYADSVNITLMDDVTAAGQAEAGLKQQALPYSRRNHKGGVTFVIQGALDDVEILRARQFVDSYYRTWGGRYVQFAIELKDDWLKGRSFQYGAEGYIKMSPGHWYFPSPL

- stoichiometry N (PrgH per OrgA) [1]: 2
Substance: OrgA^S70^p^Bpa/L104^p^Bpa (natural protein)

- stoichiometry N (OrgB per SpaO) [2]: 2
Substance: OrgB^K20^p^Bpa (OrgB^M45 variant) (natural protein)

- stoichiometry N [3]: 2
Substance: OrgB^R21^p^Bpa (OrgB^M45 variant) (natural protein)
